Test results as given in article PMC7523994, “Relationships between puroindoline A-prolamin interactions and wheat grain hardness” (PLoS ONE, 2020).

How the values were obtained:
puroindoline A [1] = target: T1, puroindoline A (Triticum aestivum, UniProt P33432 29-148); assay: SPR; α-gliadin, γ-gliadin or (PQQPY)8 covalently bound to a CM5 chip (EDC/NHS, 10 mM acetate pH 4.7); PINA flowed over at 10 μL/min, 25°C, 10 mM Hepes pH 7.4, 150 mM NaCl, 3.4 mM EDTA, 0.005% P20; global kinetic fit, 1:1 Langmuir model; settings: both partners purified
T1 construct: puroindoline A (PINA) of Triticum aestivum cv; Recital, purified from grain; about 13 kDa, five disulfide bonds, tryptophan-rich domain; The Pina allele of cv; The preparation probably holds several C-terminally processed forms; also called PINA
T1 sequence (looked up): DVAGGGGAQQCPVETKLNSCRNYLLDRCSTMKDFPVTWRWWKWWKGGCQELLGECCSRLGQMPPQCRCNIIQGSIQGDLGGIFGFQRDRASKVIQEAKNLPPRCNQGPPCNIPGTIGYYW

puroindoline A [2] = target: T1, puroindoline A; assay: SPR; (PQQPY)8 covalently bound to a CM5 chip; PINA 2 to 20 μM flowed over, 25°C, Hepes buffer pH 7.4; steady-state fit, 1:1 Langmuir model; settings: both partners purified

B1: recombinant polypeptide (PQQPY)8 (peptide)
chain: PQQPYPQQPYPQQPYPQQPYPQQPYPQQPYPQQPYPQQPY
notes: written out from '(PQQPY)8'; measured mass 4924.5 Da, theoretical 4924.3 Da; The fusion is printed as thioredoxin-DP-(PQQPY)8 and was cut in formic acid; The printed theoretical mass of 4924.3 Da fits 40 residues (eight repeats, monoisotopic) without a further proline; also called (Pro-Gln-Gln-Pro-Tyr)8; spr8; source: BLR strain, pETb32 vector, thioredoxin fusion; not shown: thioredoxin, …
- Kd (puroindoline A [1]): 0.29 ± 0.005 µM
- koff (puroindoline A [1]): 0.0015 ± 0.1 s⁻¹
- kon (puroindoline A [1]): 5000 ± 0.03 M⁻¹ s⁻¹
- Kd (puroindoline A [2]): 7.22 ± 2.8 µM
